The results in this text go back to patent publication US20160289338A1 (OXFORD BIOTHERAPEUTICS, published 2016).

The target in test [1] is T1, human Matriptase (cell-surface) (human, UniProt Q9Y5Y6 1-855).
T1 sequence: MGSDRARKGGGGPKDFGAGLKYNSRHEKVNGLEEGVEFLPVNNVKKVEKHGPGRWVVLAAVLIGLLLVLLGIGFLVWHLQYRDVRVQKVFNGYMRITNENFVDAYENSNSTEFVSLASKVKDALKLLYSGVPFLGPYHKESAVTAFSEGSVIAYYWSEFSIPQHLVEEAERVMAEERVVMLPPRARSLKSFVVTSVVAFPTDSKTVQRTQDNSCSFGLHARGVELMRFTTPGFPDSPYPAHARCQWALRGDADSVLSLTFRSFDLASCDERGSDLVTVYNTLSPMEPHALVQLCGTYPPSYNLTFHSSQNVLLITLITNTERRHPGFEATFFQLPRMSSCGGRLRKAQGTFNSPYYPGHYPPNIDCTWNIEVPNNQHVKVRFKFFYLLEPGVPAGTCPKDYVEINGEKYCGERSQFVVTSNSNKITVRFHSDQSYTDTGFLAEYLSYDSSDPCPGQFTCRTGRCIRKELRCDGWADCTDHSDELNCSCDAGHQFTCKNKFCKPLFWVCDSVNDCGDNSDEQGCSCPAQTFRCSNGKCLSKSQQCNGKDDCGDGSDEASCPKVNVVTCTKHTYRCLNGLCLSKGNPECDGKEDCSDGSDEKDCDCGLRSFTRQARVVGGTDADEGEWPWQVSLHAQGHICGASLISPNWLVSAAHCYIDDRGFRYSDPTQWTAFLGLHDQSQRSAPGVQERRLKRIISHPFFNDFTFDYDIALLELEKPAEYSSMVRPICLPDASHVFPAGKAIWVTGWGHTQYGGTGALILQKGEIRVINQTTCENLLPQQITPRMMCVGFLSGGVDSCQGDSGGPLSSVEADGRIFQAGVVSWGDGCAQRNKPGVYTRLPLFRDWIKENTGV
The test is described as follows: cell-based or functional assay.

Test [2] addresses T1, human Matriptase (cell-surface). The test is described as follows: flow cytometry on SNU-1 cells, PE GMFI. The procedure:
The specificity of antibodies against the Matriptase selected in Example 1 was tested by flow cytometry. To test the ability of the antibodies to bind to the cell surface Matriptase protein, the antibodies were incubated with the Matriptase-expressing cells. Cells were washed in FACS buffer (DPBS, 2% FBS), centrifuged and resuspended in 100 μl of the diluted primary Matriptase antibody (also diluted in FACS buffer). The antibody-cell line complex was incubated on ice for 60 min and then washed twice with FACS buffer as described above. The cell-antibody pellet was resuspended in 100 μl of the diluted secondary antibody (also diluted in FACS buffer) and incubated on ice for 60 min on ice. The pellet was washed as before and resuspended in 200 μl FACS buffer. The samples were loaded onto the BD FACScanto II flow sytometer and the data analyzed using the BD FACSdiva software.
On the technique in general: Flow cytometry measures light scatter and fluorescence of single cells or particles in a stream.

Test [3] has the same target. The test is described as follows: flow cytometry on H69 cells, GMFI Facsarray; the legend box prints no unit, nmol/L is the unit of the concentration axis.
Test [4] has the same target. Kind of test: flow cytometry on HT-29 cells, GMFI Facsarray; the legend box prints no unit, nmol/L is the unit of the concentration axis.

B1: Matriptase_A1 (antibody, V domains shown)
VH: EVQLLESGGGLVQPGGSLRLSCAASGFTFRNYDMSWVRQAPGKGLEWVSSISYSGGSTYYADSVKGRFTISRDNSKNTLSLQMNSLRAEDTAVYYCAKRGATPFDYWGQGSLVTVSS
VL: not shown
notes: Fully human monoclonal IgG from a hybridoma of an HCo12 HuMAb Mouse; supernatants were screened for human gamma, kappa antibodies; a human IgG1 isotype control was used in the ADCC assay
B1: in test [1], the “EC50, MabZAP internalization assay, H69 cells” value was determined as 0.074 nM and the “EC50, MabZAP internalization assay, HT-29 cells” value is 0.183 nM. Also, in test [2], the “EC50 (read off the curve)” value was around 0.5 nM. Moreover, a half-maximal effect in test [3] (EC50) was put at 3.45 nM. The molecule further showed an EC50 in test [4] of 0.222 nM.

The term EC50 (read off the curve) denotes the concentration giving half of the maximal effect. In general, EC50 refers to the midpoint of the concentration-response curve. Higher therefore signals weaker potency.
